We go through 20 molecules from article PMC5385344, “Large Diversity of Functional Nanobodies from a Camelid Immune Library Revealed by an Alternative Analysis of Next-Generation Sequencing Data” (Frontiers in Immunology, 2017).

The target in test [1] is Recombinant extracellular domain of human RON (rhRON) (human, UniProt Q04912).
For test [2], the target named is full-length human RON expressed on HEK293T cells (HEK293T-hRON) (Homo sapiens, UniProt Q04912).
Sequence of full-length human RON expressed on HEK293T cells (HEK293T-hRON) (Q04912 25-1400): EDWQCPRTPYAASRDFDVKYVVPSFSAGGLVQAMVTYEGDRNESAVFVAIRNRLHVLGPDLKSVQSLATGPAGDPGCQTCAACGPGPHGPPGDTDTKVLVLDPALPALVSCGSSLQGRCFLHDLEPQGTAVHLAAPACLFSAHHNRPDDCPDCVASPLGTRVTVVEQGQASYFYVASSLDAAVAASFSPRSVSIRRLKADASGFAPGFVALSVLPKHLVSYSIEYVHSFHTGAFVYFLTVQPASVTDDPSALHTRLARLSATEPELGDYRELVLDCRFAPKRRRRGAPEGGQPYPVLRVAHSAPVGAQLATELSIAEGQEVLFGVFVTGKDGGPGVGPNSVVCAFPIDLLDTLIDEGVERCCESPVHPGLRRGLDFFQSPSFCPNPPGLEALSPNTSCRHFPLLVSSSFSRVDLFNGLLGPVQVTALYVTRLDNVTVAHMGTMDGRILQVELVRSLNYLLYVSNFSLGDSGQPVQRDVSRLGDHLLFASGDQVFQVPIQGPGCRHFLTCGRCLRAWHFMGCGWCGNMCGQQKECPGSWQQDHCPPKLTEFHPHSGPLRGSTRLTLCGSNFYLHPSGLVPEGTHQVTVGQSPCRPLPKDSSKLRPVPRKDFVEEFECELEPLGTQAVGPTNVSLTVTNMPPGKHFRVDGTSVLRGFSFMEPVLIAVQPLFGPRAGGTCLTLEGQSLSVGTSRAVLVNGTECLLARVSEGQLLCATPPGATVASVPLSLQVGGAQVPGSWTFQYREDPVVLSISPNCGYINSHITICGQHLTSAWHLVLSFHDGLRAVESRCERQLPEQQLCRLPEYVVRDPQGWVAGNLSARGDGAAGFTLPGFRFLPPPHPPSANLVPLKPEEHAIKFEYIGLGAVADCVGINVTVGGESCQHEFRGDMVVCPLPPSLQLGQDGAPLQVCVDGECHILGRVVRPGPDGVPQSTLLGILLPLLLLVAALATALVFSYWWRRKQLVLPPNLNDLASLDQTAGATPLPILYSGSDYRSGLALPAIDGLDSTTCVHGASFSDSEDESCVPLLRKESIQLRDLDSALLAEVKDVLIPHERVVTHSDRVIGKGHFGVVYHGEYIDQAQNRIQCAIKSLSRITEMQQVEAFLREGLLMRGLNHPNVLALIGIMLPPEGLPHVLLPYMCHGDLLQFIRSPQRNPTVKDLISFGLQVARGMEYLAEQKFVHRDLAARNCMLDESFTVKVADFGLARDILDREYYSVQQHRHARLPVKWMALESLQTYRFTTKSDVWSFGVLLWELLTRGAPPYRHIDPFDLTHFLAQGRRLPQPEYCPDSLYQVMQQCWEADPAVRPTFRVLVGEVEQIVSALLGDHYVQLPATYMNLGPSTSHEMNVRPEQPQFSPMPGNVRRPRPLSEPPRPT

Sequence of Recombinant extracellular domain of human RON (rhRON) (Q04912 25-957): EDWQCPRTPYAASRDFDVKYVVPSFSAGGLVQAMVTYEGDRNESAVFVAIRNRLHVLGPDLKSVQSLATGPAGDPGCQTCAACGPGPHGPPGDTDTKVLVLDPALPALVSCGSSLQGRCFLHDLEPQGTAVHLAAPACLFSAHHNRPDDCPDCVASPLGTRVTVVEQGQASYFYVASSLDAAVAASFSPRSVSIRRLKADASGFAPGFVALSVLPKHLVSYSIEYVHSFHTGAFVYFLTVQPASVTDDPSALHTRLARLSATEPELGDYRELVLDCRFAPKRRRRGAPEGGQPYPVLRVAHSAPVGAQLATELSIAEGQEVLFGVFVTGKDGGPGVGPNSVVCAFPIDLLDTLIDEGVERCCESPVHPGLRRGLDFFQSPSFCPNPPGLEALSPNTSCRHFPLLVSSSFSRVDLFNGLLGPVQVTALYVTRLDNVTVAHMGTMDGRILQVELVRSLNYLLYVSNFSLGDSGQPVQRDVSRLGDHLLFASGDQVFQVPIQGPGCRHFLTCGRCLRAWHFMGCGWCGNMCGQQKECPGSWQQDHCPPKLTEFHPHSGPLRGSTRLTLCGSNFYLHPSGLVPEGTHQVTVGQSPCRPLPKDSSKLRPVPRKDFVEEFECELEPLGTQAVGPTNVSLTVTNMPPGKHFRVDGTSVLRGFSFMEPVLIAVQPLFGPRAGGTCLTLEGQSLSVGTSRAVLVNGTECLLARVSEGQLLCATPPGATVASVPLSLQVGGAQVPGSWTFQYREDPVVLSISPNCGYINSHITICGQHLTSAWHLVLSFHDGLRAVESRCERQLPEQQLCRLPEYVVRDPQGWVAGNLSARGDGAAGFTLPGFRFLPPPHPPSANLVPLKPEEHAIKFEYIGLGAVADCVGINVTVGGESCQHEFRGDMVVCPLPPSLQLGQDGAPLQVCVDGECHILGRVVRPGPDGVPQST

B1: 11A09 (VHH)
VHH: EVQLVESGGGLVQPGGSLRLSCAASGFTFSSYWMYWVRQAPGKGLEWVSAVNTGGGTTDYADSVKGRFTISRDNAKDTLYLQMNSLKYEDTAVYYCARDQRRYIRTTYDYHGQGTLVTVSS
Take B1: the binding result in test [1] and in test [2] was “binds” throughout.

B2: 8G04 (VHH)
VHH: EVQLVESGGGLVQAGGSLRLSCAASGRTFSVYPMGWFRQAPGKEREFVATISRRGAISYYQDSVKGRFTISRDSANDTVYLQMNSLRPEDTAVYYCAQYKASSSSYTRGRPDEIVYWGQGTQVTVSS
In the case of B2, the binding result in test [1] and in test [2] was “binds” each time.

B3: 8E08 (VHH)
VHH: EVQLVESGGGLVQPGGSLRLSCAASGFTLDNHAIGWFRRAPGKERERIGCISSSSGTTAYADSVEGRFTISRDNAKNTVYLQMNSLKPEDTAVYYCAARFQGGFLGCTFAPQTFGYWGQGTQVTVSS
For B3, the binding result in test [1] and in test [2] was “binds” in each case.

B4: 2C01 (VHH)
VHH: EVQLVESGGGLVQAGGSLRLSCAPSERTFRSDVMGWFRQAPGRGREFVAAIAENGDILTRFEGSAKGRFTISRDNANDTVYLQMSSLKPEDTAIYYCAARWGTITTVSHQYHFWGQGTQVTVSS
As to B4, the binding result in test [1] and in test [2] was “binds” in each case.

B5: 2D04 (VHH)
VHH: EVQLVESGGGLVQAGGSLRLSCAASGRIFSVYRVGWFRQAPGKEREIVASINNRNGASTFYADSVKGRFTISRDSAKNTVYLQMRSLRPEDTAVYYCAARDQGTTEYHYWGQGTLVTVSS
As for B5, the binding result in test [1] and in test [2] was “binds” in each case.

B6: 2A01 (VHH)
VHH: EVQLVESGGGLVQAGGSLRLSCAASSRTFSTYPMAWFRQAPGKEREFVATISRGGITSYYADSVKGRFTISRDNAKNTVYLQMNSLKPEDTAVYYCAQYKASATAYTRGRPDEIVHWGQGTQVTVSS
Take B6: the binding result in test [1] and in test [2] was “binds” each time.

B7: 5B04 (VHH)
VHH: EVQLVKSGGGLVQVGGSLRLSCAASGRTFSSYAMGWFRQAPGKERELVAAINWNGGRTYYADFVKGRFTISRDNAKNTVYLQMNSLKPEDTAVYYCAAGHLTSTGVLHPADYYNWDEYDYWGQGTQVTVSS
Consider B7, for which the binding result in test [1] and in test [2] was “binds” in each case.

B8: 5F06 (VHH)
VHH: EVQLVESGGGLVQAGGSLGLSCAASGRVAMGWFRRPPGQERDFVAAISASGATTYYADSVKGRFTISRDSAKTTVYLQMNSLKPEDTAVYYCAARLSWSSDYRSGGSYEHWGQGTQVTVSS
On to B8, for which the binding result in test [1] and in test [2] was “binds” in each case.

B9: 8B01 (VHH)
VHH: EVQLVESRGGTVQAGGSLRLSCAASGRTFSNYAAGWFRQAPGKEREFVAGISAKGGVTYYVDFVKGRFTISRDNAKNTVYLQMNSLKPEDTAVYYCAADGSYGTILATIAENSRISLLKDWGQGTLVTVSS
For B9, the binding result in test [1] and in test [2] was “binds” throughout.

B10: KY704065 (VHH)
VHH: EVQLVESGGGLVQAGGSLRLSCAVSNTVFRLRTMDWYRQAPEKRREWVATITSDGSTDYVGAVKGRFTISRDNAKSTMYLQMNNVKPEDTAVYYCYTANFWGQGTLVTVSS
Consider B10, for which the binding result in test [1] is “binds”.

B11: 8C03 (VHH)
VHH: EVQLVESGGGFVQAGGSLRLSCAASVRIAMGWFRQAPGKEREFVARISASGGSTEYADSVKGRFTISRDSSKSTAYLQMNSLKPEDTAVYYCAARLWNQREYPYWGQGTQVTVSS
B11: the binding result in test [1] and in test [2] was “binds” throughout.

B12: 2F08 (VHH)
VHH: EVQLVESGGGLVQAGGSLRLSCAASGRYPMGWFCQAPGGEREFVAAISRSGASTYYADSVKGRFTIARDSAKNTVYLEMNSLKPEDTAVYYCAAKENYYGDYGLAQNYDYWGQGTQVTVSS
For the molecule B12, the binding result in test [1] and in test [2] was “binds” in each case.

B13: 5B10 (VHH)
VHH: EVQLVESGGGLVQAGGSLRLSCATSGRYVMGWFRQAPGQEREFVTSISRSGGSTTYADSVKGRFTISRDSAENTVYLQMNSLKPEDTAVYYCAAWSYYGVAYTSTTSPDYWGQGTLVTVSS
In the case of B13, the binding result in test [1] and in test [2] was “binds” in each case.

B14: 2F12 (VHH)
VHH: EVQLVESGGGLVQAGGSLRLSCAASGSSTYEMGWFRQAPGKEREFVAGINWNGGRTYYADSVKGRFTISRDNAKMTVYLQMNSLKPEDTAAYYCSAAYGLRDAFRMYRSEYPYWGQGTQVTVSS
B14: the binding result in test [1] and in test [2] was “binds” in each case.

B15: KY704051 (VHH)
VHH: EVQLVESGGGLVQPGGSLRLSCAASGFAFSYYYMYWVRQAPGKGLEWVSRISPGGGTTYYADSVKGRFTISRDNAKNTLYLQMNSLNSEDTAVYYCAKDNRRLIDSGAYDYRGQGTLVTVSS
For B15, the binding result in test [2] is reported as “binds”.

B16: 2C11 (VHH)
VHH: EVQLVESGGGLVQPGGSLRLSCAASGFTFNYYWMYWVRQRPGKGLEWVSAINTGGGTTDYADSVKGRFTISRDNAKSTLYLQMDSLKSEDTAVYYCAKDRRRLIRSEYDYLGQGTQVTVSS
For B16, the binding result in test [1] and in test [2] was “binds” each time.

B17: 2A02 (VHH)
VHH: EVQLVESGGGTVKAGGSLRLSCAAPRRYHMGWFRQAPGKEREFVTAISSSGGSTSYADSVKGRFTISRDSAKSTVYLQMNSLKPEDTAVYFCAARSGLWMATSTQGHYDYWGQGTQVTVSS
With B17, the binding result in test [1] and in test [2] was “binds” throughout.

B18: 2B10 (VHH)
VHH: EVQLVESGGGLVQAGGSLRLSCATSGISFRLSNMGWYRQAPGKSREFVAEITSGGNWNYADSVKGRFTISRDNAKSTVYLQMNSLKPEDTGVYYCNRLGTPLWGQGTQVTVSS
Regarding B18, the binding result in test [1] and in test [2] was “binds” each time.

B19: KY704063 (VHH)
VHH: EVQLVESGGGLVQPGGSLTLSCVAYGITVPDYPIGWFRQSPGKEREGVSCIRRSGGRIVYSDSAKGRFNTSRDNAENTVYLQMNSLAPEDTAVYYCATKCMVEFGDTTYSDYAGLNYWGKGTLVTVSS
Turning to B19, in test [1], the binding result is on record as “binds”.

B20: 8D02 (VHH)
VHH: EVQLVESGGGLVQTGGSLRLSCAASGLTFSDYAMGWFRQAAGKEREFVGVISWGGRHTYYGDFAKGRFTISRENSKNTVYLQMNSLKPEDTAVYTCARKRGMADIAYTHATSYDYWGQGTQVTVSS
Regarding B20, the binding result in test [1] and in test [2] was “binds” throughout.
